# Data as given in US20190300590A1 (PROTAGONIST THERAPEUTICS, published 2019).
# Bridges are numbered along the chain shown (N, C = ends). [ ]: non-standard residue; d: D form. 1Nal = N[C@@H](Cc1cccc2ccccc12)C(=O)O; 2Nal = N[C@@H](Cc1ccc2ccccc2c1)C(=O)O; AEF = NCCOc1ccc(C[C@H](N)C(=O)O)cc1; Cit = NC(=O)NCCC[C@H](N)C(=O)O; αMeL = CC(C)C[C@](C)(N)C(=O)O; Ac6c = NC1(C(=O)O)CCCCC1; Abu = CC[C@H](N)C(=O)O; Ac4c = NC1(C(=O)O)CCC1; Ac3c = NC1(C(=O)O)CC1; AEA = NCCOCC(=O)O; βAla = NCCC(=O)O
# T1: Rat IL-23R_huFC (rat; human, UniProt F1LX96 39-369)
# T1 sequence: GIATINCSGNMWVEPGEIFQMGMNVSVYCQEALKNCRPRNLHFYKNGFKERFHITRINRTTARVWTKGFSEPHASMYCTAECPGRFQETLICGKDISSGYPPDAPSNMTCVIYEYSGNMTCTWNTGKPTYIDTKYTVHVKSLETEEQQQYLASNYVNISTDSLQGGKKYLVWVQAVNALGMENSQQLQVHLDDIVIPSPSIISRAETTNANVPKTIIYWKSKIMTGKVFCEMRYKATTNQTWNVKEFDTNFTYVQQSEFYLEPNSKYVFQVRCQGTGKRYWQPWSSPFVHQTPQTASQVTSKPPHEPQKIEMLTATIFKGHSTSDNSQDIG
# T2: IL-23R on human cells (IL-23R-expressing DB cells; human NK cells) (human, UniProt Q5VWK5 24-629)
# T2 sequence (looked up): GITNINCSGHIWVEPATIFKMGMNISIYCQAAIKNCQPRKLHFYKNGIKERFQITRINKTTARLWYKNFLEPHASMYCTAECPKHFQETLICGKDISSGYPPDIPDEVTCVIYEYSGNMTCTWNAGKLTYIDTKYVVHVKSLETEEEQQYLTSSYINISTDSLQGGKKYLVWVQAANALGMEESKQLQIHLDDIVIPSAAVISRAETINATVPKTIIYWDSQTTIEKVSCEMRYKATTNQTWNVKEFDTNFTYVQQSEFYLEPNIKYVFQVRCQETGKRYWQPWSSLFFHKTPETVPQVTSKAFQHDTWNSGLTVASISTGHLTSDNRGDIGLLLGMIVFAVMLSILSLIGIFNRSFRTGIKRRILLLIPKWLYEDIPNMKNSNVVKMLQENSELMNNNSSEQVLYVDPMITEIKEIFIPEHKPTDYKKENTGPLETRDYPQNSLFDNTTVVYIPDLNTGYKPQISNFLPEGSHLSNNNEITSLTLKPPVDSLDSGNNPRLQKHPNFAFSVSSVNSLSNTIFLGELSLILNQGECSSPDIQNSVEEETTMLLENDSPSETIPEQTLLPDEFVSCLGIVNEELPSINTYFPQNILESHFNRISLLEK
# T3: IL-23R on DB cells (human, UniProt Q5VWK5 24-629)
# T3 sequence (looked up): T2 sequence (looked up)
# B1: [Ac-[Pen]-NTWQ-[Pen]-[Phe(4-OMe)]-[2-Nal]-[Aib]-KNN-NH2]2DIG (peptide)
# peptide: XNTWQXFXXKNN
# modifications: Ac; Pen-Pen disulfide; Phe(4-OMe); 2-Nal; Aib; NH2; DIG linker joins the two subunits
# B2: [Ac-[Pen]-NTWQ-[Pen]-[Phe(4-OMe)]-[2-Nal]-[α-MeLeu]-KNN-NH2]2DIG (peptide)
# peptide: XNTWQXFXLKNN
# modifications: Ac; Pen-Pen disulfide; Phe(4-OMe); 2-Nal; α-MeLeu; NH2; DIG linker joins the two subunits
# B3: [Ac-[Pen]-NTWQ-[Pen]-[Phe(4-OMe)]-[2-Nal]-[4-amino-4-carboxy-tetrahydropyran]-KNN-NH2]2DIG (peptide)
# peptide: XNTWQXFXXKNN
# modifications: Ac; Pen-Pen disulfide; Phe(4-OMe); 2-Nal; 4-amino-4-carboxy-tetrahydropyran; NH2; DIG linker joins the two subunits
# B4: [Ac-[Pen]-NTWQ-[Pen]-[Phe(4-CONH2)]-[2-Nal]-[Acvc]-KNN-NH2]2DIG (peptide)
# peptide: XNTWQXFXXKNN
# modifications: Ac; Pen-Pen disulfide; Phe(4-CONH2); 2-Nal; Acvc; NH2; DIG linker joins the two subunits
# B5: [Ac-[Pen]-NTWQ-[Pen]-[Phe(4-OMe)]-[2-Nal]-[Acvc]-KNN-NH2]2DIG (peptide)
# peptide: XNTWQXFXXKNN
# modifications: Ac; Pen-Pen disulfide; Phe(4-OMe); 2-Nal; Acvc; NH2; DIG linker joins the two subunits
# B6: [Ac-[Pen]-NTWQ-[Pen]-[Phe(4-CONH2)]-[2-Nal]-[α-MeLeu]-KNN-NH2]2DIG (peptide)
# peptide: XNTWQXFXLKNN
# modifications: Ac; Pen-Pen disulfide; Phe(4-CONH2); 2-Nal; α-MeLeu; NH2; DIG linker joins the two subunits
# B7: [Ac-[Pen]-NTWQ-[Pen]-[Phe(4-CONH2)]-[2-Nal]-[Achc]-KNN-NH2]2DIG (peptide)
# peptide: XNTWQXFXXKNN
# modifications: Ac; Pen-Pen disulfide; Phe(4-CONH2); 2-Nal; Achc; NH2; DIG linker joins the two subunits
# B8: [Ac-[Pen]-NTWQ-[Pen]-[Phe(4-OMe)]-[2-Nal]-[Achc]-KNN-NH2]2DIG (peptide)
# peptide: XNTWQXFXXKNN
# modifications: Ac; Pen-Pen disulfide; Phe(4-OMe); 2-Nal; Achc; NH2; DIG linker joins the two subunits
# B9: [Ac-[Pen]-NTWQ-[Pen]-[Phe(4-CONH2)]-[2-Nal]-[Aib]-KNN-NH2]2DIG (peptide)
# peptide: XNTWQXFXXKNN
# modifications: Ac; Pen-Pen disulfide; Phe(4-CONH2); 2-Nal; Aib; NH2; DIG linker joins the two subunits
# B10: [Ac-[Pen]-NTWQ-[Pen]-[Phe(4-CONH2)]-[2-Nal]-[4-amino-4-carboxy-tetrahydropyran]-KNN-NH2]2DIG (peptide)
# peptide: XNTWQXFXXKNN
# modifications: Ac; Pen-Pen disulfide; Phe(4-CONH2); 2-Nal; 4-amino-4-carboxy-tetrahydropyran; NH2; DIG linker joins the two subunits
# Target: T1, Rat IL-23R_huFC
# Assay: rat IL-23R competitive ELISA
row,Binder,IC50 [nM]
1,Ac-CADWVCYWRKFG[βAla][dK]-NH2 (cysteine pairing not given here) [Ac-CADWVCYWRKFG-[βAla]-[(D)Lys]-NH2],33
2,Ac-CADWVCY[1Nal][Cit]VFG[βAla][dK]-NH2 (disulfide 1-6 (inferred)) [Ac-CADWVCY-[1-Nal]-[Cit]-VFG-[β-Ala]-[(D)Lys]-NH2],22
3,CXTWQCYWRVFGXK (Ac-; [Cit]; [AEA]; [(D)Lys]; -NH2) [Ac-C-[Cit]-TWQCYWRVFG-[AEA]-[(D)Lys]-NH2],76

# Target: T2, IL-23R on human cells …
# Assay: cell-based or functional assay
row,Binder,NK cell assay IC50 (IFNγ) [nM]
1,Ac-[Abu]QTWQC[AEF][2Nal][Ac6c]ENN-NH2 (thioether 1-6) [Ac-Cyclo-[[Abu]-QTWQC]-[Phe[4-(2-aminoethoxy)]]-[2-Nal]-[Achc]-ENN-NH2],< 25
2,FXQTWQCFXXENN (as bracketed in name; thioether cyclo),< 25
3,Ac-[Abu]QTWQC[AEF][2Nal][αMeL]QN[βAla]-NH2 (thioether 1-6) [Ac-Cyclo-[[Abu]-QTWQC]-[Phe[4-(2-aminoethoxy)]]-[2-Nal]-[α-MeLeu]-QN-[βAla]-NH2],< 25
4,Ac-[Abu]QTWQC[AEF][2Nal][Ac4c]ENN-NH2 (thioether 1-6) [Ac-Cyclo-[[Abu]-QTWQC]-[Phe[4-(2-aminoethoxy)]]-[2-Nal]-[Acbc]-ENN-NH2],< 25
5,Ac-[Abu]QTWQC[AEF][2Nal][Ac3c]ENN-NH2 (thioether 1-6) [Ac-Cyclo-[[Abu]-QTWQC]-[Phe[4-(2-aminoethoxy)]]-[2-Nal]-]Acpc]-ENN-NH2],< 25

# Target: T2, IL-23R on human cells …
# Assay: cell-based or functional assay
# Remark: another data set of the same source
row,Binder,pStat3 HTRF IC50 [nM]
1,Ac-[Abu]QTWQC[AEF][2Nal][Ac6c]ENN-NH2 (thioether 1-6) [Ac-Cyclo-[[Abu]-QTWQC]-[Phe[4-(2-aminoethoxy)]]-[2-Nal]-[Achc]-ENN-NH2],< 10
2,Ac-[Abu]QTWQC[AEF][2Nal][αMeL]QN[βAla]-NH2 (thioether 1-6) [Ac-Cyclo-[[Abu]-QTWQC]-[Phe[4-(2-aminoethoxy)]]-[2-Nal]-[α-MeLeu]-QN-[βAla]-NH2],< 10
3,Ac-[Abu]QTWQC[AEF][2Nal][Ac4c]ENN-NH2 (thioether 1-6) [Ac-Cyclo-[[Abu]-QTWQC]-[Phe[4-(2-aminoethoxy)]]-[2-Nal]-[Acbc]-ENN-NH2],< 10

# Target: T3, IL-23R on DB cells
# Assay: cell-based or functional assay
row,Binder,pStat3 HTRF IC50 [nM]
1,B1,< 10
2,B2,< 10
3,B3,< 10
4,B4,< 10
5,B5,< 10
6,B6,< 10
7,B7,< 10
8,B8,< 10
9,B9,< 10
10,B10,< 10

# Target: Rat IL-23R_huFC (rat)
# Assay: rat ELISA vs IL-23
row,Binder,IC50 [nM]
1,Ac-CRTWQ[Abu]YWRKFG[AEA][dK]-NH2 (thioether 1-6) [Ac-Cyclo-[CRTWQ-[Abu]]-YWRKFG-[AEA]-[(D)Lys]-NH2],100 to 1000
